The values that follow come from US6368811 (VLAAMS INTERUNIVERSITAIR INSTITUUT VOOR BIOTECHNOLOGIE, dated 2002).

Series [1] has as its target T1, syndecan-3 full length cytoplasmic domain fused to the Gal4 DNA-binding domain (UniProt P04386 1-147; O75056 410-442).
T1 construct: also called Gal4-syndecan bait
Kind of series: yeast two-hybrid. The source says:
(§1) The yeast two-hybrid system (Chien et al, 1991; P.N.A.S., 88, 9578–9582) was used to identify the domains of sycl and the residues in the syndecan cytoplasmic domains that are responsible for the syndecan-sycl interaction. Different parts of the original clone (3p11) and of the sycl cDNA were subcloned in the pGAD10 vector (Clontech Laboratories), to code for fusions between the activating domain of Gal4 (Gal4 AD) and various full length, truncated, deleted, point-mutated, or epitope-tagged versions of sycl. […] But a requirement for paired PDZ domains (for instance two PDZ1 or two PDZ2 domains) has also been observed for the interactions of the GRIP adaptor protein with AMPA receptors 12 and the interaction of hDlg with the cytoplasmic domain of the Shaker-type K+channel.
(§2) Baits, comprising at least a cytoplasmic domain FYA (corresponds to Phe-Tyr-Ala) as C-terminal sequence of syndecans fused in frame to the DNA-binding domain of Gal4, were constructed by PCR, using the BamHI/SalI restriction sites of the pAS2 vector (Clontech Laboratories), and used to screen a human liver cDNA library (Clontech Laboratories) cloned in pGAD10. The pAS2 plasmids and library were cotransfected in CG1945 yeast cells, and positive clones were selected on triple minus plates (Leu-, Trp-, His-) and assayed for b-galactosidase activity. Positive cDNA clones were cotransfected with all four bait vectors and with the original pAS2 vector cells to confirm the interaction.

The target in series [2] is T2, syndecan-2 full length cytoplasmic domain fused to the Gal4 DNA-binding domain (UniProt P04386 1-147; P34741 170-201).
T2 construct: also called Gal4-syndecan bait
The series can be described thus: yeast two-hybrid.
Excerpt: as §1, §2

The series “ligand blot” concerns the molecule itself. The series can be described thus: ligand blot.
Series [3] deals with T3, GST (glutathione S-transferase) itself (UniProt P08515 1-218 = GST).
T3 construct: Control; also called isolated GST-moiety
T3 sequence (P08515 whole entry): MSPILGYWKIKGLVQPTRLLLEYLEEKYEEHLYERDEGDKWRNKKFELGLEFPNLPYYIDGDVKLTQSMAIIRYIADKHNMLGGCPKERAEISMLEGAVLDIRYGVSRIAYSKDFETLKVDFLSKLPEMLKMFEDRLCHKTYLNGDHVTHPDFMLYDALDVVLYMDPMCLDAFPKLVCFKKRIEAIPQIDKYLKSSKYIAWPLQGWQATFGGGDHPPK
Kind of series: ligand blot.

B1: second PDZ domain of sycl alone fused to Gal4 activating domain (other, not shown: large carriers)
chain: PFERTITMHKDSTGHVGFIFKNGKITSIVKDSSAARNGLLTEHNICEINGQNVIGLKDSQIADILSTSGTVVTITIMPAFI
notes: also called PDZ-2 alone; either of the two PDZ domains alone
Regarding B1, the binding result in series [1] and in series [2] was “no binding” in each case.

B2: first PDZ domain of sycl alone fused to Gal4 activating domain (other, not shown: large carriers)
chain: VGIRRAEIKQGIREVILCKDQDGKIGLRLKSIDNGIFVQLVQANSPASLVGLRFGDQVLQINGENCAGWSSDKAHKVLKQAFGEKITMTIRDR
notes: also called PDZ-1 alone; either of the two PDZ domains alone
Take B2: the binding result in series [1] and in series [2] was “no binding” throughout.

B3: N-terminal domain of sycl alone fused to Gal4 activating domain (other, not shown: large carriers)
chain: MSLYPSLEDLKVDKVIQAQTAFSANPANPAILSEASAPIPHDGNLYPRLYPELSQYMGLSLNEEEIRASVAVVSGAPLQGQLVARPSSINYMVAPVTGNDVGIRRAEIKQGIR
notes: also called The N-terminal domain alone
As to B3, the binding result in series [1] and in series [2] was “no binding” throughout.

B4: GST-sycl M92 (sycl sequence starting at M92) fusion protein (other)
chain: MVAPVTGNDVGIRRAEIKQGIREVILCKDQDGKIGLRLKSIDNGIFVQLVQANSPASLVGLRFGDQVLQINGENCAGWSSDKAHKVLKQAFGEKITMTIRDRPFERTITMHKDSTGHVGFIFKNGKITSIVKDSSAARNGLLTEHNICEINGQNVIGLKDSQIADILSTSGTVVTITIMPAFIFEHIIKRMAPSIMKSLMDHTIPEV
notes: Expressed in E. coli BL21; not shown: glutathione S-transferase (GST) as encoded by vector pGEX-5X-2
Take B4: the binding result (in “ligand blot”; in series [3]) was “no binding” throughout.
